Read-outs that look alike come from different tables or passages of the source.
What was measured:
Assay type in all cases: biochemical
[1] = system: LAETG (Abz-LAETGK(Dnp)-CONH2); experiment: In vitro sortase kinetics HPLC assay, LAETG substrate; conditions: for preference for LPETG over LAETG / preference for LAETG over LPETG: ratio of kcat/KM; for increase in kcat/Km for LAETG as compared to LPETG / increased affinity (KM) for the LAETG substrate as compared to the LPETG substrate: FIG. 1; for Specificity (relative catalytic efficiency, fold): ratio of kcat/KM between 2A (LAETG) and wt (LPETG); for specificity (relative cat. Efficiency, fold): ratio of kcat/Km between 2A (LAETG) and wt (LPETG) substrates, favoured over disfavoured; for kcat, 1 mM LxExG (Hz) / kHydrolysis (Hz): GGG varied; for kHydrolysis (Hz): 1 mM
Procedure: (§1) See below for details on sortase expression and purification, and on the synthesis of Abz-LPETGK(Dnp)-CONH2 (SEQ ID NO: 19). […] Reactions were initiated with the addition of enzyme and incubated at 22.5° C. for 3 to 20 minutes before quenching with 0.5 volumes of 1 M HCl. Five to ten nmol of peptide from the quenched reactions were injected onto an analytical reverse-phase Eclipse XDB-C18 HPLC column (4.6×150 mm, 5 μm, Agilent Technologies) and chromatographed using a gradient of 10 to 65% acetonitrile with 0.1% TFA in 0.1% aqueous TFA over 13 minutes. Retention times under these conditions for the Abz-LPETGK(Dnp)-CONH2 (SEQ ID NO: 19) substrate, the released GKDnp peptide, and the Abz-LPETGGG-COOH (SEQ ID NO: 20) product were 12.8, 10.4, and 9.1 min, respectively. To calculate the percent conversion, the ratio of the integrated areas of the Abz-LPETGGG-COOH (SEQ ID NO: 20) and Abz-LPETGK(Dnp)-CONH2 (SEQ ID NO: 19) peptide Abs220 peaks was compared to a standard curve generated by mixing the product and starting peptide in known ratios. To determine […] and Km, reaction rates were fit to the Michaelis-Menten equation using OriginPro 7.0 software. All kinetics values reported represent the average of at least three measurements. Percent conversion was also calculated by using the ratio of the integrated areas of the GK(Dnp)-CONH2 and Abz-LPETGK(Dnp)-CONH2 peptide Abs355 peaks were compared directly (Example 5). To determine kcat and Km, LPETG, reaction rates were fit to the Michaelis-Menten equation using Microsoft Excel using the Solver add-in. To determine Km,GGG and KH, reaction rates were fit to the modified Michaelis-Menten, for which KH is as defined when KH<<Km,GGG.
(§2) Assays to determine eSrtA, eSrtA(2A-9) and eSrtA(4S-9) specificity were performed by preparing 10 μM stocks of Abz-LXEXGK(Dnp) (SEQ ID NO: 75) peptides in 300 mM Tris pH 7.5, 150 mM NaCl, 5 mM CaCl2, 5% v/v DMSO, and 100 mM Gly-Gly-Gly-COOH (GGG). Reactions were performed by adding eSrtA(2A-9) to a final concentration of 450 nM, eSrtA(4S-9) to a final concentration of 115 nM or eSrtA to a final concentration of 47.5 nM and a final volume of 100 μL, then incubating at 22.5° C. for 15 minutes. Reactions were quenched by the addition of 0.2 volumes of 5 M HCl, then were injected onto an analytical reverse-phase Eclipse XDB-C18 HPLC column (4.6×150 mm, 5 μm, Agilent Technologies) and chromatographed using a gradient of 10 to 65% acetonitrile with 0.1% TFA in 0.1% aqueous TFA over 13 minutes. Retention times under these conditions for the Abz-LPETGK(Dnp)-CONH2 (SEQ ID NO: 19) substrate, the released GKDnp peptide, and the Abz-LPETGGG-COOH (SEQ ID NO: 20) product were 12.8, 10.4, and 9.1 min, respectively, while the remaining Abz-LXEXGK(Dnp)-CONH2 (SEQ ID NO: 74) substrates varied in retention time between 9 and 13 minutes. To calculate the percent conversion, the ratio of the integrated areas of the GK(Dnp)-CONH2 and Abz-LPETGK(Dnp)-CONH2 (SEQ ID NO: 19) peptide Abs355 peaks were compared directly. Subsequent determination of kcat/Km and KH were performed as described for in vitro SrtA characterization.
(§3) In each case, rate constants were determined by measuring enzyme velocity at eight different substrate concentrations by HPLC assay, then fit using nonlinear regression to the Michaelis-Menten equation, yielding kcat and Km. KH was calculated by measuring enzyme velocity at 1 mM target substrate and eight different GGG concentrations by HPLC assay, then fitting the resulting curves using nonlinear regression to the modified Michaelis-Menten equation.

[2] = system: LPETG (Abz-LPETGK(Dnp)-CONH2); experiment: In vitro sortase kinetics HPLC assay, LPETG substrate
Procedure: as §1, §2, §3

[3] = system: LPESG (Abz-LPESGK(Dnp)-CONH2); experiment: In vitro sortase kinetics HPLC assay, LPESG substrate; conditions: reversion of V182
Procedure: as §1, §2, §3

[4] = Example 5 variants, substrate wt (LPETG)
[5] = Example 5 variants, substrate wt (LPETG), read-out: Avg KM
[6] = substrate wt (LPETG), read-out: Km, LxExG
[7] = Example 5 variants, substrate 2A (LAETG)
[8] = Example 5 variants, substrate 2A (LAETG), read-out: Avg KM
[9] = substrate 2A (LAETG), read-out: Km, LxExG
[10] = 1 mM 2A (LAETG) substrate, read-out: Km, GGG

B1: eSrtA(2A-9) H104A (protein)
chain: QAKPQIPKDKSKVAGYIEIPDADIKEPVYPGPATREQLNRGVCFADENESLDDQNISIAGHTFIDRPNYQFTNLKAAKPGSMVYFKVGNETRIYKMTSIRKVHPNAVEVLDEQEGKDKQLTLVTCDDYNEETGVWESRKIFVATEVK
- preference for LPETG over LAETG [1]: 60 fold

B2: eSrtA(2A-9) V182I (protein)
chain: QAKPQIPKDKSKVAGYIEIPDADIKEPVYPGPATREQLNRGVCFHDENESLDDQNISIAGHTFIDRPNYQFTNLKAAKPGSMVYFKVGNETRIYKMTSIRKVHPNAVEVLDEQEGKDKQLTLITCDDYNEETGVWESRKIFVATEVK
- preference for LAETG over LPETG [1]: 85 fold
- activity level for LAETG ([1]; reversion of V182): lowers the activity level for LAETG

B3: eSrtA(2A-4): 5mut + A104H K162R V168I I182V (protein)
chain: QAKPQIPKDKSKVAGYIEIPDADIKEPVYPGPATREQLNRGVSFHEENESLDDQNISIAGHTFIDRPNYQFTNLKAAKKGSMVYFKVGNETRKYKMTSIRNVRPTAVEILDEQKGKDKQLTLVTCDDYNEETGVWETRKIFVATEVK
- Avg kcat (Hz) [2, 4]: 0.0501 Hz
- Km [2, 5]: 5180 µM
- kcat, 10 mM GGG (Hz) ([2]; substrate wt (LPETG)): 0.09356 Hz
- Km [2, 6]: 11700 µM
- Avg kcat (Hz) [1, 7]: 1.988 Hz
- Km [1, 8]: 3720 µM
- increase in kcat/Km for LAETG as compared to LPETG [1]: ~40 fold
- preference for LAETG over LPETG [1]: 73 fold
- Specificity (relative catalytic efficiency, fold) [1]: 55.11 fold
- specificity (relative cat. Efficiency, fold) [1]: 73.05 fold
- kcat, 10 mM GGG (Hz) ([1]; substrate 2A (LAETG)): 1.901 Hz
- Km [1, 9]: 3250 µM

B4: eSrtA(2A-5): 5mut + R99H A104H K138I K162R I182V (protein)
chain: QAKPQIPKDKSKVAGYIEIPDADIKEPVYPGPATREQLNHGVSFHEENESLDDQNISIAGHTFIDRPNYQFTNLKAAKIGSMVYFKVGNETRKYKMTSIRNVRPTAVEVLDEQKGKDKQLTLVTCDDYNEETGVWETRKIFVATEVK
- kcat, 10 mM GGG (Hz) ([2]; substrate wt (LPETG)): 0.1375 Hz
- Km [2, 6]: 4900 µM
- Khydrolysis ([1]; 1 mM 2A (LAETG) substrate): 615.9 µM
- kcat, 1 mM LxExG (Hz) ([1]; 1 mM 2A (LAETG) substrate): 1.493 Hz
- Km [1, 10]: 2810 µM
- increase in kcat/Km for LAETG as compared to LPETG [1]: ~125 fold
- increased affinity (KM) for the LAETG substrate as compared to the LPETG substrate [1]: ~116 fold
- KH ([1]; GGG concentration at which hydrolysis and transpeptidation rates are equal, unit not given): 731±235
- specificity (relative cat. Efficiency, fold) [1]: 115.7 fold
- kL/KL/KH ([1]; substrate 2A (LAETG)): 5.29E+06
- kHydrolysis (Hz) ([1]; substrate 2A (LAETG)): 0.324 Hz
- kcat, 10 mM GGG (Hz) ([1]; substrate 2A (LAETG)): 1.41 Hz
- Km [1, 9]: 433 µM

B5: 2A.6C: 5mut + A104H K138P K152I D160K* K162R I182V (protein)
chain: QAKPQIPKDKSKVAGYIEIPDADIKEPVYPGPATREQLNRGVSFHEENESLDDQNISIAGHTFIDRPNYQFTNLKAAKPGSMVYFKVGNETRIYKMTSIRKVRPTAVEVLDEQKGKDKQLTLVTCDDYNEETGVWETRKIFVATEVK
- kcat, 10 mM GGG (Hz) ([2]; substrate wt (LPETG)): 0.07676 Hz
- Km [2, 6]: 1980 µM
- Khydrolysis ([1]; 1 mM 2A (LAETG) substrate): 12.49 µM
- kcat, 1 mM LxExG (Hz) ([1]; 1 mM 2A (LAETG) substrate): 0.5359 Hz
- Km [1, 10]: 642 µM
- increased affinity (KM) for the LAETG substrate as compared to the LPETG substrate [1]: ~61 fold
- specificity (relative cat. Efficiency, fold) [1]: 61.61 fold
- kL/KL/KH ([1]; substrate 2A (LAETG)): 1.91E+08
- kHydrolysis (Hz) ([1]; substrate 2A (LAETG)): 0.01048 Hz
- kcat, 10 mM GGG (Hz) ([1]; substrate 2A (LAETG)): 0.8129 Hz
- Km [1, 9]: 343 µM

B6: eSrtA(2A-3): round 3 LAETG clone: eSrtA + K84R F122S D124G K134R K145E K162R V168I K177R I182F (protein)
chain: QAKPQIPKDKSKVAGYIEIPDADIREPVYPGPATREQLNRGVSFAEENESLDDQNISIAGHTSIGRPNYQFTNLRAAKKGSMVYFEVGNETRKYKMTSIRNVRPTAVEILDEQKGKDRQLTLFTCDDYNEETGVWETRKIFVATEVK
- Avg kcat (Hz) [2, 4]: 2.653 Hz
- Km [2, 5]: 2100 µM
- Avg kcat (Hz) [1, 7]: 1.117 Hz
- Km [1, 8]: 1620 µM
- preference for LPETG over LAETG [1]: 1.4 fold
- Specificity (relative catalytic efficiency, fold) [1]: 1.436 fold
- reduced catalytic efficiency ([1]; round 3 clone, LAETG target): > 10 fold

B7: 2A.6B: 5mut + R99K A104H K138V D160K* K162R I182V (protein)
chain: QAKPQIPKDKSKVAGYIEIPDADIKEPVYPGPATREQLNKGVSFHEENESLDDQNISIAGHTFIDRPNYQFTNLKAAKVGSMVYFKVGNETRKYKMTSIRKVRPTAVEVLDEQKGKDKQLTLVTCDDYNEETGVWETRKIFVATEVK
- Khydrolysis ([1]; 1 mM 2A (LAETG) substrate): 12.49 µM
- kcat, 1 mM LxExG (Hz) ([1]; 1 mM 2A (LAETG) substrate): 0.5359 Hz
- Km [1, 10]: 642 µM
- kL/KL/KH ([1]; substrate 2A (LAETG)): 1.81E+08
- kHydrolysis (Hz) ([1]; substrate 2A (LAETG)): 0.01048 Hz
- kcat, 10 mM GGG (Hz) ([1]; substrate 2A (LAETG)): 0.6977 Hz
- Km [1, 9]: 310 µM

B8: eSrtA(4S-9) V182I (protein)
chain: QAKPQIPKDKSKVAGYIEIPDADIKEPVYPGPATREQLDRGVCFVEENESLDDQNISITGHTAIDRPNYQFTNLRAAKKGSMVYLKVGNETRKYKMTSIRNVKPTAVEVLDEQKGKDKQLTLITCDDYNFETGVWETRKIFVATEVK
- selectivity and overall activity [3]: preserved selectivity but decreased overall activity

B9: SrtA: wild-type Staphylococcus aureus sortase A (SEQ ID NO: 1) (protein)
chain: MKKWTNRLMTIAGVVLILVAAYLFAKPHIDNYLHDKDKDEKIEQYDKNVKEQASKDKKQQAKPQIPKDKSKVAGYIEIPDADIKEPVYPGPATPEQLNRGVSFAEENESLDDQNISIAGHTFIDRPNYQFTNLKAAKKGSMVYFKVGNETRKYKMTSIRDVKPTDVEVLDEQKGKDKQLTLITCDDYNEKTGVWEKRKIFVATEVK
modifications: S. aureus
- KH ([2]; 1 mM LPETG): 14.3 ± 0.8 µM
- KN ([2]; 1 mM LPETG, eight GGG concentrations): 14.3 ± 0.8 µM
- Km ([2]; 1 mM LPETG, read-out: Km,GGG): 211 ± 8 µM
- Khydrolysis ([2]; 1 mM wt (LPETG) substrate): 28.38 µM
- kcat, 1 mM LxExG (Hz) ([2]; 1 mM wt (LPETG) substrate, GGG varied): 0.1731 Hz
- Km ([2]; 1 mM wt (LPETG) substrate, read-out: Km, GGG): 291 µM
- KH,LPETG ([2]; LPETG substrate): 14.3 ± 0.8 µM
- Kcat (Hz) ([2]; Sub LPETG, 100 mM GGG): 1.5 ± 0.2 Hz
- Km ([2]; Sub LPETG, 100 mM GGG, read-out: Km): 7600 ± 500 µM
- Rel. Activity ([2]; Sub LPETG, kcat/Km of the enzyme's preferred substrate relative to kcat/Km on this substrate): 1
- Kcat (Hz) ([2]; Table 2, Sub LPETG): 1.5 ± 0.2 Hz
- Km ([2]; Table 2, Sub LPETG, read-out: Km): 7600 ± 500 µM
- kL/KL/KH ([2]; substrate wt (LPETG)): 8.30E+06
- kHydrolysis (Hz) ([2]; substrate wt (LPETG), 1 mM, GGG varied): 0.01657 Hz
- kcat, 10 mM GGG (Hz) ([2]; substrate wt (LPETG)): 1.221 Hz
- Km [2, 6]: 5180 µM
